In patent US20220411483A1 (Chugai, published 2022):
Substitutions are numbered along the chain they refer to. Numbers in names are those of the source. Like-named read-outs stand apart in the source and are kept apart here. Each block holds one binder with its values, some of them ahead of it.

What was measured:
[1] = target: T1, FcgRIIb (human, UniProt P31994 43-217); assay: SPR, amount bound per captured antibody
T1 construct: extracellular domain; also called FcγRIIb
T1 sequence (looked up): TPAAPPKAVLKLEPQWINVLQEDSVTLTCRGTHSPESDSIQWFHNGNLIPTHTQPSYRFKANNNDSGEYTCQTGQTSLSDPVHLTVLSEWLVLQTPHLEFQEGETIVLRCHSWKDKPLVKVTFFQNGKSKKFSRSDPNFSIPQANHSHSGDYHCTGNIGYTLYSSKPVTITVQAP

[2] = target: T2, FcγRIIb extracellular domain, His tag (human, UniProt P31994 43-217); assay: SPR, bound amount per captured antibody
T2 construct: extracellular domain; also called FcgRIIb
T2 sequence (looked up): T1 sequence (looked up)

[3] = target: T3, FcγRIIa R type extracellular domain, His tag (human, UniProt P12318 34-217); assay: SPR, bound amount per captured antibody
T3 construct: extracellular domain; also called FcgRIIaR
T3 sequence (looked up): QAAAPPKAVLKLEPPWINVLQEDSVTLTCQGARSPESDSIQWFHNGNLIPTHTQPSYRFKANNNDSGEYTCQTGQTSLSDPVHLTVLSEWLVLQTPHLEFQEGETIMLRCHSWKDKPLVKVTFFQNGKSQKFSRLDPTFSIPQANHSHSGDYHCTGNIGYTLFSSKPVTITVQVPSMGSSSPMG

[4] = target: T4, FcγRIIb extracellular domain with C-terminal His tag (human, UniProt P31994 43-217); assay: SPR (Biacore), FcgR as analyte
T4 construct: extracellular domain; also called FcgRIIb
T4 sequence (looked up): T1 sequence (looked up)

[5] = target: T5, FcγRIa extracellular domain with C-terminal His tag (human, UniProt P12314 16-292); assay: SPR (Biacore), FcgR as analyte
T5 construct: also called FcgRIa
T5 sequence (P12314 16-292): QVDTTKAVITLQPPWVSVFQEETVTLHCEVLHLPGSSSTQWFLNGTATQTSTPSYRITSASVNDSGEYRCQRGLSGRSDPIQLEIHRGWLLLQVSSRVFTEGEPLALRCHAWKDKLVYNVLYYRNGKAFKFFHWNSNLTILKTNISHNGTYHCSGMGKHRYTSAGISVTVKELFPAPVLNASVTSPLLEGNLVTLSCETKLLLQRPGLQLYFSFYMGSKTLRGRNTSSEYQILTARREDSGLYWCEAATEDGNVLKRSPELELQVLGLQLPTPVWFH

[6] = target: T6, FcγRIIa R type extracellular domain with C-terminal His tag (human, UniProt P12318 34-217); assay: SPR; amount bound divided by amount of IL6R-F652/IL6R-L bound, x100
T6 construct: extracellular domain; also called FcgRIIaR; not shown: His tag at the C terminus
T6 sequence (looked up): T3 sequence (looked up)

[7] = target: T7, FcγRIIb extracellular domain with C-terminal His tag (human, UniProt P31994 43-217); assay: as above
T7 construct: extracellular domain; also called FcgRIIb; not shown: His tag at the C terminus
T7 sequence (looked up): T1 sequence (looked up)

[8] = target: T8, FcgRIIaR (human, UniProt P12318 34-217); assay: SPR, amount bound per captured antibody
T8 construct: extracellular domain; also called FcγRIIa R type; FcγRIIa (R type)
T8 sequence (looked up): T3 sequence (looked up)

[9] = target: T2, FcγRIIb extracellular domain, His tag; assay: SPR, bound amount per captured antibody; remark: listed apart in the source
[10] = target: T3, FcγRIIa R type extracellular domain, …; assay: SPR, bound amount per captured antibody; remark: listed apart in the source

B3: IL6R-BP209/IL6R-L (antibody, human IgG1, kappa, name in EU numbering)
heavy: QVQLQESGPGLVKPSETLSLTCAVSGHSISHDHAWSWVRQPPGEGLEWIGFISYSGITNYNPSLQGRVTISRDNSKNTLYLQMNSLRAEDTAVYYCARSLARTTAMDYWGEGTLVTVSSASTKGPSVFPLAPSSKSTSGGTAALGCLVKDYFPEPVTVSWNSGALTSGVHTFPAVLQSSGLYSLSSVVTVPSSSLGTQTYICNVNHKPSNTKVDKKVEPKSCDKTHTCPPCPAPELLGDDSVFLFPPKPKDTLMISRTPEVTCVVVDVSDEDGEVKFNWYVDGVEVHNAKTKPREEQYNSTYRVVSVLTVLHQDWLNGKEYKCKVSNAALPRPIEKTISKAKGQPREPQVYTLPPSRDELTKNQVSLTCLVKGFYPSDIAVEWESNGQPENNYKTTPPVLDSDGSFFLYSKLTVDKSRWQQGNVFSCSVMHEALHNHYTQESLSLSP
light: not shown
notes: IgG1; alterations on IL6R-B3, EU numbering
Kd [4]: 51 nM
Kd [5]: 39 nM

B6: IL6R-BP084/IL6R-L (antibody, human IgG1, kappa, name in EU numbering)
heavy: B3 heavy with D239G, D270H, G273P, V325M, A328K, R332K
light: not shown
notes: as for B3
Kd [4]: 500 nM
Kd [5]: 7 nM

B7: IL6R-BP324/IL6R-L (antibody, human IgG1, kappa, name in EU numbering)
heavy: B3 heavy with E235D, D267R, D270E, A328K, R332A
light: not shown
Relative FcgRIIaR-binding Activity [8]: 3.7 IL6R-BP267/IL6R-L=100
Relative FcgRIIb-binding Activity [1]: 3.2 IL6R-BP267/IL6R-L=100

B13: IL6R-2B045/IL6R-L (antibody, human IgG1, kappa)
heavy: B3 heavy with D239G, F243M, D270H, G273P, A328K, R332A
light: not shown
Relative FcgRIIb-binding Activity [9]: 81.1 % of IL6R-BF648/IL6R-L
Relative FcgRIIaR-binding Activity [10]: 64.7 % of IL6R-BF648/IL6R-L

B14: IL6R-2B261/IL6R-L (antibody, human IgG1, kappa, name in EU numbering)
heavy: B3 heavy with E235D, D239G, D270H, G273P, Y298D, A328K, R332A
light: not shown
notes: as for B3
Kd [4]: 1000 nM
Kd [5]: 9 nM

B15: IL6R-2B118/IL6R-L (antibody, human IgG1, kappa)
heavy: B3 heavy with D239G, D270H, G273P, Q297M, A328K, R332A
light: not shown
Relative FcgRIIb-binding Activity [9]: 96.3 % of IL6R-BF648/IL6R-L
Relative FcgRIIaR-binding Activity [10]: 93.4 % of IL6R-BF648/IL6R-L

B17: IL6R-2B137/IL6R-L (antibody, human IgG1, kappa)
heavy: B3 heavy with D239G, D270H, G273P, Y298N, A328K, R332A
light: not shown
Relative FcgRIIb-binding Activity [9]: 98.3 % of IL6R-BF648/IL6R-L
Relative FcgRIIaR-binding Activity [10]: 77.7 % of IL6R-BF648/IL6R-L

B19: IL6R-2B124/IL6R-L (antibody, human IgG1, kappa)
heavy: B3 heavy with D239G, D270H, G273P, Q297V, A328K, R332A
light: not shown
Relative FcgRIIb-binding Activity [9]: 72.9 % of IL6R-BF648/IL6R-L
Relative FcgRIIaR-binding Activity [10]: 65.2 % of IL6R-BF648/IL6R-L

Further lines, results first:

Relative FcgRIIb-binding Activity [1]: 16.7 IL6R-BP267/IL6R-L=100
B1: IL6R-BP365/IL6R-L (antibody, human IgG1, kappa, name in EU numbering)
heavy: B3 heavy with E235D, S269Y, D270E, A328K, R332A
light: not shown

Relative FcgRIIb-binding Activity [2]: 102 % of IL6R-F652/IL6R-L
Relative FcgRIIaR-binding Activity [3]: 73.9 % of IL6R-F652/IL6R-L
B2: IL6R-PD023/IL6R-L (antibody, human IgG1, kappa)
heavy: B3 heavy with D239G, M254Y, D270H, G273P, A328K, R332H, N436Y, E441K
light: not shown

Relative FcgRIIaR-binding Activity [6]: 41.8
Relative FcgRIIb-binding Activity [7]: 27.6
B4: IL6R-PD031/IL6R-L (antibody, human IgG1, kappa)
heavy: B3 heavy with L236H, D239G, M254Y, D270H, G273P, A328K, R332A, N436Y, E441K
light: not shown
notes: human IgG1

Relative FcgRIIb-binding Activity [2]: 80.5 % of IL6R-F652/IL6R-L
Relative FcgRIIaR-binding Activity [3]: 77 % of IL6R-F652/IL6R-L
B5: IL6R-PD004/IL6R-L (antibody, human IgG1, kappa)
heavy: B3 heavy with D239G, M254Y, D270P, G273P, A328K, R332A, N436Y, E441K
light: not shown

Relative FcgRIIb-binding Activity [2]: 95.4 % of IL6R-F652/IL6R-L
Relative FcgRIIaR-binding Activity [3]: 89.9 % of IL6R-F652/IL6R-L
B8: IL6R-PD047/IL6R-L (antibody, human IgG1, kappa)
heavy: B3 heavy with L237F, D239G, M254Y, D270H, G273P, A328K, R332A, N436Y, E441K
light: not shown

Relative FcgRIIb-binding Activity [2]: 100 % of IL6R-F652/IL6R-L
Relative FcgRIIaR-binding Activity [3]: 100 % of IL6R-F652/IL6R-L
B9: IL6R-F652/IL6R-L (antibody, human IgG1, kappa)
heavy: B3 heavy with D239G, M254Y, D270H, G273P, A328K, R332A, N436Y, E441K
light: not shown
notes: IL6R-F648 (P238D) with M252Y and N434Y

Relative FcgRIIb-binding Activity [2]: 74.4 % of IL6R-F652/IL6R-L
Relative FcgRIIaR-binding Activity [3]: 60 % of IL6R-F652/IL6R-L
B10: IL6R-PD024/IL6R-L (antibody, human IgG1, kappa)
heavy: B3 heavy with D239G, M254Y, D270H, G273P, A328K, R332Y, N436Y, E441K
light: not shown

Relative FcgRIIaR-binding Activity [6]: 7.8
Relative FcgRIIb-binding Activity [7]: 5.4
B11: IL6R-PD038/IL6R-L (antibody, human IgG1, kappa)
heavy: B3 heavy with L236R, D239G, M254Y, D270H, G273P, A328K, R332A, N436Y, E441K
light: not shown
notes: human IgG1

Relative FcgRIIaR-binding Activity [6]: 44.4
Relative FcgRIIb-binding Activity [7]: 38.3
B12: IL6R-PD035/IL6R-L (antibody, human IgG1, kappa)
heavy: B3 heavy with L236N, D239G, M254Y, D270H, G273P, A328K, R332A, N436Y, E441K
light: not shown
notes: human IgG1

Relative FcgRIIaR-binding Activity [6]: 0.5
Relative FcgRIIb-binding Activity [7]: 11.8
B16: IL6R-PD085/IL6R-L (antibody, human IgG1, kappa)
heavy: B3 heavy with D239K, M254Y, D270H, G273P, A328K, R332A, N436Y, E441K
light: not shown
notes: human IgG1

Relative FcgRIIaR-binding Activity [6]: 11.2
Relative FcgRIIb-binding Activity [7]: 6.2
B18: IL6R-PD033/IL6R-L (antibody, human IgG1, kappa)
heavy: B3 heavy with L236K, D239G, M254Y, D270H, G273P, A328K, R332A, N436Y, E441K
light: not shown
notes: human IgG1
